How the values were obtained:
[1] = molecular target: lymphatic vessel endothelial hyaluronan receptor 1 protein (LYVE-1) (R&D, Cat. No. 2089-Ly) (UniProt Q9Y5Y7); assay: ELISA on plate-coated LYVE-1 (50 ng), anti-goat IgG-HRP detection
[2] = molecular target: human CD44-IgG1 fusion protein (extracellular domain of human CD44 fused to human IgG1) (human); assay: ELISA: antibody pre-mixed with human CD44-Ig (0.6 µg/ml); inhibition of CD44-Ig binding to plate-coated hyaluronic acid (HA)
[3] = molecular target: cynomolgus CD44 (on cells) (cynomolgus monkey); assay: cell-based or functional assay
[4] = molecular target: human CD44 (on cells) (human) (UniProt P16070); assay: cell-based or functional assay
Sequence of human CD44 (on cells) (human) (P16070 other isoform, or with tags, fused parts or gaps limits assumed): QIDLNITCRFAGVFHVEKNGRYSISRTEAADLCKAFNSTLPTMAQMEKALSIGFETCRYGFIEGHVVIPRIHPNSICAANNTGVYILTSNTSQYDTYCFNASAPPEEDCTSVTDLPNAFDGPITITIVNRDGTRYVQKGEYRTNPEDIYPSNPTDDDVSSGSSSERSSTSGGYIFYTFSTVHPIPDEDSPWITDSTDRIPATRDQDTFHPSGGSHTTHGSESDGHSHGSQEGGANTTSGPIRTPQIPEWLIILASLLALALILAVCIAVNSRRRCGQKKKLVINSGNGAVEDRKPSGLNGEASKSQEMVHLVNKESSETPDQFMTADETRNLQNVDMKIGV

Sequence of human CD44-IgG1 fusion protein (extracellular domain of human CD44 fused to human IgG1) (human) (chain, as listed by the source limits assumed): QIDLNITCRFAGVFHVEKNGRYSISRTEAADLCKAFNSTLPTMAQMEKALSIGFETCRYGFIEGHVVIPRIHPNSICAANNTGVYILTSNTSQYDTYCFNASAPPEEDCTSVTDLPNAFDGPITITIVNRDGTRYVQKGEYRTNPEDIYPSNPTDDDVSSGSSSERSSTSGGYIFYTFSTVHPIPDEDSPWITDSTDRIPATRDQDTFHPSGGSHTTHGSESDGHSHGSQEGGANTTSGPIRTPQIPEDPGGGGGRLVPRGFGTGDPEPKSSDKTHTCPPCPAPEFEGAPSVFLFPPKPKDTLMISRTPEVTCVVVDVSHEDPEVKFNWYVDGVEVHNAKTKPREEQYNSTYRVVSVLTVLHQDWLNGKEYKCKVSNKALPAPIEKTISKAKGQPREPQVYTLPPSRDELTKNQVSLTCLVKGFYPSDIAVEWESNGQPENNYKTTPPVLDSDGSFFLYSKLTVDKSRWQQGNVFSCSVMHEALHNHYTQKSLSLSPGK
Sequence of lymphatic vessel endothelial hyaluronan receptor 1 protein (LYVE-1) (R&D, Cat. No. 2089-Ly) (Q9Y5Y7 24-232 limits assumed): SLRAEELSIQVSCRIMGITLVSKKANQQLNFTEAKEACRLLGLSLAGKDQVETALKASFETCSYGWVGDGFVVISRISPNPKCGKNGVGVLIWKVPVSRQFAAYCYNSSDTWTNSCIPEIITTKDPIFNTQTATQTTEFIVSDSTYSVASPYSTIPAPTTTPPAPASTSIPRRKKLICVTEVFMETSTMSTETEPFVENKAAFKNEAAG
Sequence of cynomolgus CD44 (on cells) (cynomolgus monkey) (P16070 other isoform, or with tags, fused parts or gaps limits assumed): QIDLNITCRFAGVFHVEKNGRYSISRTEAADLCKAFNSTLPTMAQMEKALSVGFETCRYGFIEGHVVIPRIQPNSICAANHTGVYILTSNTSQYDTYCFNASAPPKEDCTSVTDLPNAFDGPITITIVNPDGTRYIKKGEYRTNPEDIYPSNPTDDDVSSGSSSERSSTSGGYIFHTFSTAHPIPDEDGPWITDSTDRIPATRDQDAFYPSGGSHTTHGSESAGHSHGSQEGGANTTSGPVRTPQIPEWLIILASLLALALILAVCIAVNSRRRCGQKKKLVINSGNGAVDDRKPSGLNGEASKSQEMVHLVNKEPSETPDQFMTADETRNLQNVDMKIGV

Row | EC50 [1] [µg/mL] | IC50 [2] [µg/mL] | IC50 of reduction of CD44 surface expression on cynomolgus peripheral CD3+ T cells (FACS) [3] [µg/mL] | IC50 of IL-1β release from purified human PBMC stimulated by HA [4] [µg/mL] | IC50 of reduction of CD44 surface expression on human peripheral CD3+ T cells (FACS) [4] [µg/mL] | Substance
1 | 0.1 | – | – | – | – | anti-LYVE-1 antibody (R&D, Cat. No. AF 2089)
2 | – | 1.85 | 9.9 | 1.62 | 1.5 | anti-CD44 antibody IM7 (BD Bioscience, Cat. No. 553134)
3 | – | 0.32 | – | 1.46 | – | anti-CD44 antibody 515 (BD Bioscience, Cat. No. 550990)

Source: patent US20100092484A1
